We go through 57 substances from patent US10597433B2, “Peptides and combination of peptides for use in immunotherapy against small cell lung cancer and other cancers” (Immatics Biotechnologies GmbH, priority 2015, dated 2020).

The test addresses HLA-A*02:01 (Homo sapiens, UniProt P04439, D140Y/D185E/D98H/E176V/E277Q/G131W/G231S/I119V/I121R/I166T/I218V/L300P/L318F/N151K/N90K/P208A/P217A/Q86G/Q94H/R138H/R169H/T345S). Description: MHC binding assay: UV-ligand exchange with ELISA detection of β2m of stabilized MHC complexes. To be noted: binding to HLA-A*02:01. The source says:
Candidate peptides for T cell based therapies according to the present invention were further tested for their MHC binding capacity (affinity). The individual peptide-MHC complexes were produced by UV-ligand exchange, where a UV-sensitive peptide is cleaved upon UV-irradiation, and exchanged with the peptide of interest as analyzed. Only peptide candidates that can effectively bind and stabilize the peptide-receptive MHC molecules prevent dissociation of the MHC complexes. To determine the yield of the exchange reaction, an ELISA was performed based on the detection of the light chain (β2m) of stabilized MHC complexes. The assay was performed as generally described in Rodenko et al. (Rodenko et al., 2006).
96 well MAXISorp plates (NUNC) were coated over night with 2 μg/ml streptavidin in PBS at room temperature, washed 4× and blocked for 1 h at 37° C. in 2% BSA containing blocking buffer. Refolded HLA-A*02:01/MLA-001 monomers served as standards, covering the range of 15-500 ng/ml. Peptide-MHC monomers of the UV-exchange reaction were diluted 100 fold in blocking buffer. Samples were incubated for 1 h at 37° C., washed four times, incubated with 2 μg/ml HRP conjugated anti-β2m for 1 h at 37° C., washed again and detected with TMB solution that is stopped with […]. Absorption was measured at 450 nm. Candidate peptides that show a high exchange yield (preferably higher than 50%, most preferred higher than 75%) are generally preferred for a generation and production of antibodies or fragments thereof, and/or T cell receptors or fragments thereof, as they show sufficient avidity to the MHC molecules and prevent dissociation of the MHC complexes.
In general terms: An ELISA detects its analyte on a solid surface through an enzyme-linked reagent.
For “57 (VLIGDVLVAV; listed as Homo sapiens) [compound 57]”, the “Peptide exchange (MHC class I binding score, peptide exchange yield)” value (“Peptide exchange” for short) is recorded as “++++ (≥75% = ++++)”.

For the substance “58 (VLLNINGIDL; listed as Homo sapiens) [compound 58]”, the “Peptide exchange” value is “++++ (≥75% = ++++)”.

In the case of “59 (VLLSGLTEV; listed as Homo sapiens) [compound 59]”, the “Peptide exchange” value is on record as “++++ (≥75% = ++++)”.

For the substance “60 (VVSGATETL; listed as Homo sapiens) [compound 60]”, the “Peptide exchange” value is recorded as “++++ (≥75% = ++++)”.

For the substance “61 (YQAPYFLTV; listed as Homo sapiens) [compound 61]”, the “Peptide exchange” value was “+++ (≥50 = +++)”.

As for “62 (VMLPIGAVVMV; listed as Homo sapiens) [compound 62]”, the “Peptide exchange” value was “+++ (≥50 = +++)”.

For the substance “63 (LLMSTENEL; listed as Homo sapiens) [compound 63]”, the “Peptide exchange” value is “+++ (≥50 = +++)”.

Regarding “64 (VLFHQLQEI; listed as Homo sapiens) [compound 64]”, the “Peptide exchange” value is reported as “+++ (≥50 = +++)”.

For the substance “65 (VMYDLITEL; listed as Homo sapiens) [compound 65]”, the “Peptide exchange” value is “+++ (≥50 = +++)”.

As for “66 (YLNLISTSV; listed as Homo sapiens) [compound 66]”, the “Peptide exchange” value is “+++ (≥50 = +++)”.

As for “67 (MLYDIVPVV; listed as Homo sapiens) [compound 67]”, the “Peptide exchange” value is “+++ (≥50 = +++)”.

Take “68 (FLFPVYPLI; listed as Homo sapiens) [compound 68]”: the “Peptide exchange” value is “+++ (≥50 = +++)”.

On to “69 (KLFDRSVDL; listed as Homo sapiens) [compound 69]”, for which the “Peptide exchange” value is recorded as “++ (≥20% = ++)”.

With “70 (TLLWKLVEV; listed as Homo sapiens) [compound 70]”, the “Peptide exchange” value is reported as “++ (≥20% = ++)”.

With “71 (FIFEQVQNV; listed as Homo sapiens) [compound 71]”, the “Peptide exchange” value was “+++ (≥50 = +++)”.

On to “72 (KAIGSLKEV; listed as Homo sapiens) [compound 72]”, for which the “Peptide exchange” value was “+++ (≥50 = +++)”.

Turning to “73 (SLSSYTPDV; listed as Homo sapiens) [compound 73]”, the “Peptide exchange” value is listed as “+++ (≥50 = +++)”.

For “74 (FLDSLSPSV; listed as Homo sapiens) [compound 74]”, the “Peptide exchange” value is “+++ (≥50 = +++)”.

Take “75 (SLDLHVPSL; listed as Homo sapiens) [compound 75]”: the “Peptide exchange” value is “+++ (≥50 = +++)”.

In the case of “77 (AIIDGKIFCV; listed as Homo sapiens) [compound 77]”, the “Peptide exchange” value is reported as “+++ (≥50 = +++)”.

For “78 (RIIDPEDLKALL; listed as Homo sapiens) [compound 78]”, the “Peptide exchange” value was “++++ (≥75% = ++++)”.

For the substance “79 (RLLEPAQVQQL; listed as Homo sapiens) [compound 79]”, the “Peptide exchange” value is on record as “+++ (≥50 = +++)”.

Turning to “81 (LLAEIGAVTLV; listed as Homo sapiens) [compound 81]”, the “Peptide exchange” value was “+++ (≥50 = +++)”.

Take “83 (KLLEIDIDGV; listed as Homo sapiens) [compound 83]”: the “Peptide exchange” value is “+++ (≥50 = +++)”.

For “84 (KMFENEFLL; listed as Homo sapiens) [compound 84]”, the “Peptide exchange” value is listed as “+++ (≥50 = +++)”.

“85 (FAYDGKDYLTL; listed as Homo sapiens) [compound 85]”: the “Peptide exchange” value is reported as “+++ (≥50 = +++)”.

In the case of “86 (KVIDYVPGI; listed as Homo sapiens) [compound 86]”, the “Peptide exchange” value was “+++ (≥50 = +++)”.

As for “87 (LLQNNLPAV; listed as Homo sapiens) [compound 87]”, the “Peptide exchange” value is given as “++++ (≥75% = ++++)”.

Turning to “88 (TLHRETFYL; listed as Homo sapiens) [compound 88]”, the “Peptide exchange” value is given as “++++ (≥75% = ++++)”.

For the substance “89 (IQHDLIFSL; listed as Homo sapiens) [compound 89]”, the “Peptide exchange” value is reported as “+++ (≥50 = +++)”.

Turning to “90 (TLVDNISTMAL; listed as Homo sapiens) [compound 90]”, the “Peptide exchange” value is given as “+++ (≥50 = +++)”.

Consider “91 (KLQDGVHII; listed as Homo sapiens) [compound 91]”, for which the “Peptide exchange” value is “+++ (≥50 = +++)”.

Consider “92 (YLQDYTDRV; listed as Homo sapiens) [compound 92]”, for which the “Peptide exchange” value is given as “+++ (≥50 = +++)”.

As to “93 (ALRETVVEV; listed as Homo sapiens) [compound 93]”, the “Peptide exchange” value is on record as “+++ (≥50 = +++)”.

In the case of “94 (ALFPVAEDISL; listed as Homo sapiens) [compound 94]”, the “Peptide exchange” value is “+++ (≥50 = +++)”.

In the case of “95 (ALYSKGILL; listed as Homo sapiens) [compound 95]”, the “Peptide exchange” value is on record as “++++ (≥75% = ++++)”.

“96 (NLLKLIAEV; listed as Homo sapiens) [compound 96]”: the “Peptide exchange” value is listed as “++++ (≥75% = ++++)”.

On to “97 (ALLDGTVFEI; listed as Homo sapiens) [compound 97]”, for which the “Peptide exchange” value is listed as “+++ (≥50 = +++)”.

As to “98 (ALVDHLNVGV; listed as Homo sapiens) [compound 98]”, the “Peptide exchange” value was “+++ (≥50 = +++)”.

With “99 (QMLEAIKALEV; listed as Homo sapiens) [compound 99]”, the “Peptide exchange” value is “++++ (≥75% = ++++)”.

Consider “100 (VADPETRTV; listed as Homo sapiens) [compound 100]”, for which the “Peptide exchange” value is on record as “+ (≥10% = +)”.

Take “101 (AMNSQILEV; listed as Homo sapiens) [compound 101]”: the “Peptide exchange” value was “+++ (≥50 = +++)”.

Regarding “102 (ALFARPDLLLL; listed as Homo sapiens) [compound 102]”, the “Peptide exchange” value is given as “++++ (≥75% = ++++)”.

As to “103 (SLLEYQMLV; listed as Homo sapiens) [compound 103]”, the “Peptide exchange” value is “++++ (≥75% = ++++)”.

As for “104 (TLIQFTVKL; listed as Homo sapiens) [compound 104]”, the “Peptide exchange” value was “+++ (≥50 = +++)”.

Consider “105 (SMYDKVLML; listed as Homo sapiens) [compound 105]”, for which the “Peptide exchange” value is “++++ (≥75% = ++++)”.

On to “106 (KMPDDVWLV; listed as Homo sapiens) [compound 106]”, for which the “Peptide exchange” value was “++++ (≥75% = ++++)”.

Consider “107 (AMYGTKLETI; listed as Homo sapiens) [compound 107]”, for which the “Peptide exchange” value is given as “++++ (≥75% = ++++)”.

“108 (ILLDDQFQPKL; listed as Homo sapiens) [compound 108]”: the “Peptide exchange” value was “++++ (≥75% = ++++)”.

Regarding “109 (SLFERLVVL; listed as Homo sapiens) [compound 109]”, the “Peptide exchange” value is “++++ (≥75% = ++++)”.

In the case of “111 (FLPEAPAEL; listed as Homo sapiens) [compound 111]”, the “Peptide exchange” value is “+++ (≥50 = +++)”.

Regarding “112 (LLLPGVIKTV; listed as Homo sapiens) [compound 112]”, the “Peptide exchange” value is recorded as “+++ (≥50 = +++)”.

“114 (ALLEPGGVLTI; listed as Homo sapiens) [compound 114]”: the “Peptide exchange” value is on record as “+++ (≥50 = +++)”.

With “115 (ALLPSDCLQEA; listed as Homo sapiens) [compound 115]”, the “Peptide exchange” value is recorded as “+++ (≥50 = +++)”.

As to “116 (ALLVRLQEV; listed as Homo sapiens) [compound 116]”, the “Peptide exchange” value was “++++ (≥75% = ++++)”.

“117 (FLLDSAPLNV; listed as Homo sapiens) [compound 117]”: the “Peptide exchange” value is reported as “++++ (≥75% = ++++)”.

As for “118 (KLPSFLANV; listed as Homo sapiens) [compound 118]”, the “Peptide exchange” value is “+++ (≥50 = +++)”.
